Laboratory results taken from patent publication US20180258161A1 (Chugai, published 2018).
Where a chain is given by its changes, count along the chain named.

What was measured:
[1] = biological target: T1, recombinant human glypican 3 (human, UniProt P51654 25-563, biotin-labeled in the ELISA); experiment: ELISA on biotin-labeled GPC3
T1 construct: Six histidine residues are linked; also called GPC3; human GPC3
Procedure: The plate was incubated at 37° C. for 30 minutes. […] The plate was incubated for one hour.

human interleukin 6 = biological target: T2, human interleukin 6 (human, UniProt P05231 30-212, limits assumed); experiment: Biacore T100, antibody captured by Protein A/G, pH 7.4, 37 C
T2 construct: also called hIL6; IL-6
Procedure: Using Biacore T100 (GE Healthcare), the prepared antibodies were assessed for their binding activity (dissociation constant KD (M)) to human interleukin 6 (hIL6) at pH 7.4. The measurement was carried out using as a running buffer 0.05% Tween20, 10 mmol/1 ACES, 150 mmol/l NaCl (pH 7.4) containing 3 μM or 1.2 mM CaCl₂.
After an adequate amount of recombinant Protein A/G (Thermo Scientific) was immobilized onto Sensor chip CM5 (GE Healthcare) by an amino coupling method, antibodies were allowed to bind thereto. An appropriate concentration of hIL6 (human interleukin 6; Kamakura Techno-Science, Inc.) was injected as an analyte to interact with antibodies on the sensor chip. Then, the sensor chip was regenerated by injecting 10 mmol/1 glycine-HCl (pH 1.5). The measurement was carried out at 37° C.

[2] = biological target: T3, soluble human IL-6 receptor (human, UniProt P08887 20-357); experiment: Biacore T100, antibody captured by Protein A, 37 C
T3 construct: also called hsIL-6R; hIL6R
T3 sequence: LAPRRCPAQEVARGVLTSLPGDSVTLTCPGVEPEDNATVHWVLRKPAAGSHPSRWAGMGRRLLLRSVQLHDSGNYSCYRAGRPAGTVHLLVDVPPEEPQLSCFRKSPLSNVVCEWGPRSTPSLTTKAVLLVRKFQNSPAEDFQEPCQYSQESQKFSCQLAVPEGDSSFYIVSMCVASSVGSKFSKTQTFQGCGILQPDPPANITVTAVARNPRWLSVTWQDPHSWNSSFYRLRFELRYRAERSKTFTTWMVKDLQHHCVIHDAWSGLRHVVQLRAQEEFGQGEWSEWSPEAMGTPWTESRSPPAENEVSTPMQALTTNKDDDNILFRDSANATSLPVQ

[3] = biological target: T3, soluble human IL-6 receptor; experiment: Biacore T100
recombinant human IgA [4] = biological target: T4, recombinant human IgA (human); experiment: Biacore T200, pH 5.8, 3 µM Ca, 1:1 binding model
T4 construct: Antigen; H(WT)-IgA1 with L(WT); The text calls human IgA a dimeric antigen; also called hIgA
Procedure: (§1) Using Biacore T200 (GE Healthcare), the obtained antibodies were assessed for their binding activity to human IgA (dissociation constant KD (M)). The measurement was carried out using as a running buffer 0.05% tween20, 20 mmol/1 ACES, 150 mmol/l NaCl (pH 7.4 or pH 5.8) containing 3 μM or 1.2 mM CaCl₂, or 0.05% tween20, 20 mmol/1 ACES, 150 mmol/l NaCl (pH 8.0) containing 0.1 μM or 10 mM CaCl₂.
(§2) After an adequate amount of recombinant Protein A/G (Thermo Scientific) was immobilized onto the Sensor chip CM5 (GE Healthcare) by an amino coupling method, antibodies were allowed to bind onto the sensor chip. An appropriate concentration of hIgA (described in (20-1)) was injected as an analyte to interact with antibodies on the sensor chip. Then, the sensor chip was regenerated by injecting 10 mmol/l glycine-HCl, pH 1.5. The measurement was carried out at 37° C. From the assay result, the dissociation constant KD (M) was calculated based on curve-fitting analysis and equilibrium constant analysis using Biacore T200 Evaluation Software (GE Healthcare).

recombinant human IgA [5] = biological target: T4, recombinant human IgA; experiment: Biacore T200, pH 7.4, 3 µM Ca, 1:1 binding model
Procedure: as §1, §2

recombinant human IgA [6] = biological target: T4, recombinant human IgA; experiment: Biacore T200, pH 8.0, 10 mM Ca, 1:1 binding model
Procedure: as §1, §2

recombinant human IgA [7] = biological target: T4, recombinant human IgA; experiment: Biacore T200, pH 5.8, 1.2 mM Ca, 1:1 binding model
Procedure: as §1, §2

recombinant human IgA [8] = biological target: T4, recombinant human IgA; experiment: Biacore T200, pH 7.4, 1.2 mM Ca, 1:1 binding model
Procedure: as §1, §2

recombinant human IgA [9] = biological target: T4, recombinant human IgA; experiment: Biacore T200, pH 8.0, 0.1 µM Ca, 1:1 binding model
Procedure: as §1, §2

recombinant human IgA [10] = biological target: T4, recombinant human IgA; experiment: Biacore T200, pH 5.8, 3 µM Ca, steady state affinity
Procedure: as §1, §2

recombinant human IgA [11] = biological target: T4, recombinant human IgA; experiment: Biacore T200, pH 7.4, 3 µM Ca, steady state affinity
Procedure: as §1, §2

recombinant human IgA [12] = biological target: T4, recombinant human IgA; experiment: Biacore T200, pH 5.8, 1.2 mM Ca, steady state affinity
Procedure: as §1, §2

recombinant human IgA [13] = biological target: T4, recombinant human IgA; experiment: Biacore T200, pH 7.4, 1.2 mM Ca, steady state affinity
Procedure: as §1, §2

T4 sequence (heavy, as listed by the source): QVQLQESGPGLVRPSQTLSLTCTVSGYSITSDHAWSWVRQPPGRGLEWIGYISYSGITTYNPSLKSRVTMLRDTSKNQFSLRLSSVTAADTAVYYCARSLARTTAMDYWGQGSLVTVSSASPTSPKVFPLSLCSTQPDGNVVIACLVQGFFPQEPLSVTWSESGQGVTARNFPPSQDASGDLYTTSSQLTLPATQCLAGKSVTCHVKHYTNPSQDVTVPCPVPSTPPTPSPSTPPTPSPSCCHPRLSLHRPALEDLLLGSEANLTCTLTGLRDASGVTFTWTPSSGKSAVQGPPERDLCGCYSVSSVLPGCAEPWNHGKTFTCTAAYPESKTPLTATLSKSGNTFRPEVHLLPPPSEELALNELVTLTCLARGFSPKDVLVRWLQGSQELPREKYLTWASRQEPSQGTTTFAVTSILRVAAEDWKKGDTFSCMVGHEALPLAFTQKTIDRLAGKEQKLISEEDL
T2 sequence (P05231 30-212 limits assumed): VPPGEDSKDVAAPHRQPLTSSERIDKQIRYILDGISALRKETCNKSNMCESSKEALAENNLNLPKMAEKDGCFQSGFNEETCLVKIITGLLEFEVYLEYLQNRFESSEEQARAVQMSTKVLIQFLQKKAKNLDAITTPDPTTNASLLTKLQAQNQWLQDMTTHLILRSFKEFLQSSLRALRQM

B1: GC-IgG1 (antibody, V domains shown)
VH: QVQLVQSGAEVKKPGASVKVSCKASGYTFTDYEMHWVRQAPGQGLEWMGALDPKTGDTAYSQKFKGRVTLTADKSTSTAYMELSSLTSEDTAVYYCTRFYSYTYWGQGTLVTVSS
VL: DVVMTQSPLSLPVTPGEPASISCRSSQSLVHSNRNTYLHWYLQKPGQSPQLLIYKVSNRFSGVPDRFSGSGSGTDFTLKISRVEAEDVGVYYCSQNTHVPPTFGQGTKLEIKR
binding result [1]: binds

B2: 6KC4-1#85-IgG1 (antibody, V domains shown)
VH: EVQLVESGGGLVQPGGSLRLSCAASGFTFSSYEMNWVRQAPGKGLEWVSYISSSGSTIYYADSVKGRFTISRDNAKNSLYLQMNSLRAEDTAVYYCARDAPYYYDSSGYTDAFDIWGQGTMVTVSS
VL: EIVLTQSPATLSLSPGERATLSCRASQSVSSYLAWYQQKPGQAPRLLIFDASNRAAGIPARFSGSGSGTDFTLTISSLEPEDFAVYYCQQFDKWVTFGGGTTVEIRR
binding result (human interleukin 6): binds

B3: 6RK#12-IgG1 (antibody, V domains shown)
VH: QVQLVQSGAEVKKPGSSVKVSCKASGGTFSSYAISWVRQAPGQGLEWMGGIIPIFGTANYAQKFQGRVTITADESTSTAYMELSSLRSEDTAVYYCARDLGDIVVVPAAPDMPKGYYYYGMDVWGQGTMVTVSS
VL: EIVMTQSPATLSVSPGERATLSCRASQSINDNLAWYQQKPGQAPRLLIYGASTRATGIPARFSGSGSGTEFTLTISSLQSEDFAVYFCQQYQYWPPITFGQGTRLDIKR
binding result [2]: binds

B4: FH4-IgG1 (antibody, V domains shown)
VH: QVQLVQSGAEVKKPGSSVKVSCKASGGTFSSYAISWVRQAPGQGLEWMGGIIPIFGTANYAQKFQGRVTITADESTSTAYMELSSLRSEDTAVYYCARERDYYDSSGYYDAFDIWGQGTMVTVSS
VL: ETTVTQSPSFLSASVGDRVTITCITTTDIDDDMNWFQQEPGKAPKLLISEGNILRPGVPSRFSSSGYGTDFTLTISKLQPEDFATYYCLQSDNLPFTFGQGTKLEIKR
Ca … (KD at 3 µM CaCl2 against KD at 2 mM CaCl2) [3]: ≥ 60 fold

B5: 6LC4-2#16-IgG1 (antibody, V domains shown)
VH: QVQLQQSGPGLVKPSQTLSLTCAISGDSVSSNSAAWNWIRQSPSRGLEWLGRTYYRSKWYNDYAVSVKSRITINPDTSKNQFSLQLNSVTPEDTAVYYCARDLIAAAGGDFDYWGQGTLVTVSS
VL: QSVLTQPPSVSGAPGQRVTISCTGSRSNIGAGFDVHWYRQLPGTAPKLLIYGISNRPSGVPDRFSGSKSDTSVSLAITGLQAEDEADYYCQSYDSSLSGYVFGTGTKVTVLG
binding result (human interleukin 6): binds

B6: GA1-IgG1 (antibody, V domains shown)
VH: EVQLVQSGAEVKKPGSSVKVSCKASGGTFSSYAISWVRQAPGQGLEWMGGIIPIFGTANYAQKFQGRVTITADESTSTAYMELSSLRSEDTAVYYCARVAPGNWGSPYFDYWGQGTLVTVSS
VL: DIQMTQSPSSLSASVGDRVTITCRASQSIEDDLAWYQQKPGKAPKLLIYEASSLQSGVPSRFSGSGSGTDFTLTISSLQPEDFATYYCQQRDSSPLTFGQGTKVEIKR
notes: also called GAI-IgG1
Kd (recombinant human IgA [4]): 150 nM | koff (recombinant human IgA [4]): 0.11 s⁻¹ | kon (recombinant human IgA [4]): 710000 M⁻¹ s⁻¹ | Kd (recombinant human IgA [5]): 190 nM | koff (recombinant human IgA [5]): 0.12 s⁻¹ | kon (recombinant human IgA [5]): 640000 M⁻¹ s⁻¹ | Kd (recombinant human IgA [6]): 220 nM | koff (recombinant human IgA [6]): 0.24 s⁻¹ | kon (recombinant human IgA [6]): 1.1e+06 M⁻¹ s⁻¹ | Kd (recombinant human IgA [7]): 140 nM | koff (recombinant human IgA [7]): 0.099 s⁻¹ | kon (recombinant human IgA [7]): 680000 M⁻¹ s⁻¹ | Kd (recombinant human IgA [8]): 150 nM | koff (recombinant human IgA [8]): 0.084 s⁻¹ | kon (recombinant human IgA [8]): 570000 M⁻¹ s⁻¹ | Kd (recombinant human IgA [9]): 100 nM | koff (recombinant human IgA [9]): 0.12 s⁻¹ | kon (recombinant human IgA [9]): 1.2e+06 M⁻¹ s⁻¹

B7: GA4-IgG1 (antibody, V domains shown)
VH: QVQLQQSGPGLVKPSETLSLTCTILGGSISGHYWSWIRQTPGKGLEWIGYIDYSGSTHYNPSLKSRVTMSVDTSKNQFSLKLSSVTAADTAMYYCARDNWDFGSGSYYNWFDPWGQGTLVTVSS
VL: B6 VL with E50H, R91S, S93N
Kd (recombinant human IgA [10]): 1500 nM | Kd (recombinant human IgA [11]): 890 nM | Kd (recombinant human IgA [12]): 1100 nM | Kd (recombinant human IgA [13]): 420 nM

B8: GA3-IgG1 (antibody, V domains shown)
VH: QVQLVQSGAEVKKPGSSVKVSCKASGGTFSSYAISWVRQAPGQGLEWMGGIIPIFGTANYAQKFQGRVTITADESTSTAYMELSSLRSEDTAVYYCARGNGDYLEYFQHWGQGTLVTVSS
VL: B6 VL with E30S, S53N
Kd (recombinant human IgA [7]): 81 nM | koff (recombinant human IgA [7]): 0.035 s⁻¹ | kon (recombinant human IgA [7]): 440000 M⁻¹ s⁻¹ | Kd (recombinant human IgA [8]): 79 nM | koff (recombinant human IgA [8]): 0.033 s⁻¹ | kon (recombinant human IgA [8]): 430000 M⁻¹ s⁻¹ | Kd (recombinant human IgA [10]): 1100 nM

B9: GA2-IgG1 (antibody, V domains shown)
VH: QVQLVQSGAEVKKPGSSVKVSCKASGGTFSSYAISWVRQAPGQGLEWMGGIIPIFGTANYAQKFQGRVTITADESTSTAYMELSSLRSEDTAVYYCARPRWETAISSDAFDIWGQGTMVTVSS
VL: B6 VL with E30S, A34N, S53N, R91H, D92S
koff (recombinant human IgA [8]): 0.016 s⁻¹

B10: 6RL#9-IgG1 (antibody, V domains shown)
VH: QVQLVQSGAEVKKPGASVKVSCKASGYTFTSYYMHWVRQAPGQGLEWMGIINPSGGSTSYAQKFQGRVTMTRDTSTSTVYMELSSLRSEDTAVYYCARDDPGGGEYYFDYWGQGTLVTVSS
VL: QSVLTQPPSVSGAPGQRVTISCTGSRSNMGAGYDVHWYQLLPGAAPKLLISHNTHRPSGVPDRFSGSKSGASASLAITGLQAEDEADYYCQSHDSSLSAVVFGGGTKLTVLS
Ca … (KD at 3 µM CaCl2 against KD at 2 mM CaCl2) [3]: ≥ 120 fold

B11: 6LC4-1#15-IgG1 (antibody, V domains shown)
VH: QVQLVQSGAEVKKPGATVKISCKVSGYTFTDYYMHWVQQAPGKGLEWMGLVDPEDGETIYAEKFQGRVTITADTSTDTAYMELSSLRSEDTAVYYCATAGSSSNFDYWGQGTLVTVSS
VL: QSALTQPRSVSGSPGQSVTISCTGTSSDVGGYNYVSWYQQHPGKAPKLMIYDVSKRPSGVPDRFSGSKSGNTASLTISGLQAEDEADYYCCSYAGSYTWVFGGGTKLTVLG
binding result (human interleukin 6): binds
